Results on five molecules are retold here after publication PMC5713876, “Molecular architectures of benzoic acid-specific type III polyketide synthases” (Acta Crystallographica. Section D, Structural Biology, 2017).

One data set has as its target T1, MdBIS3 (MdBIS3.1) (Malus domestica, UniProt K9MST3).
T1 construct: cDNA in pHIS8, E. coli BL21(DE3), N-terminal His8 tag cut with thrombin; homodimer
The data set is described as follows: X-ray crystal structure, […] Å. Format: binding. Conditions: crystals soaked with 15 mM benzoyl-CoA; CoA tunnel and active site, partial occupancy; active-site cysteine oxidized to sulfinic acid.

Substrate in data set [1]: CC(C)(COP(=O)(O)OP(=O)(O)OC[C@H]1O[C@@H](n2cnc3c(N)ncnc32)[C@H](O)[C@@H]1OP(=O)(O)O)[C@@H](O)C(=O)NCCC(=O)NCCSC(=O)CC(=O)O
The data set is described as follows: steady-state kinetics, LC-MS product quantification. Format: biochemical, Malus domestica. The following applies: starter substrate held constant (standard 15 µM; which starter not told), 0.1 M potassium phosphate pH 7.0, 37°C. The source says:
(§1) steady-state kinetics, LC-MS product quantification on MdBIS1 (MdBIS1.1)

Substrate in data set [2]: CC(C)(COP(=O)(O)OP(=O)(O)OC[C@H]1O[C@@H](n2cnc3c(N)ncnc32)[C@H](O)[C@@H]1OP(=O)(O)O)[C@@H](O)C(=O)NCCC(=O)NCCSC(=O)c1ccccc1
The description is as above. The following applies: malonyl-CoA held constant (standard 60 µM), 0.1 M potassium phosphate pH 7.0, 37°C. In kind it is biochemical, Malus domestica.
Text: as §1

Substrate in data set [3]: CC(C)(COP(=O)(O)OP(=O)(O)OC[C@H]1O[C@@H](n2cnc3c(N)ncnc32)[C@H](O)[C@@H]1OP(=O)(O)O)[C@@H](O)C(=O)NCCC(=O)NCCSC(=O)c1ccccc1O
The description is as above. Conditions: malonyl-CoA held constant (standard 60 µM), 0.1 M potassium phosphate pH 7.0, 37°C. Format: biochemical, Malus domestica.
Text: as §1

Substrate in data set [4]: CC(C)(COP(=O)(O)OP(=O)(O)OC[C@H]1O[C@@H](n2cnc3c(N)ncnc32)[C@H](O)[C@@H]1OP(=O)(O)O)[C@@H](O)C(=O)NCCC(=O)NCCSC(=O)CC(=O)O
The description is as above. In kind it is biochemical, Malus domestica. Conditions: starter substrate held constant (standard 15 µM; which starter not told), 0.1 M potassium phosphate pH 7.0, 37°C. The source says: (§2) steady-state kinetics, LC-MS product quantification on MdBIS3 (MdBIS3.1)
The source holds these as a separate data set.

Substrate in data set [5]: CC(C)(COP(=O)(O)OP(=O)(O)OC[C@H]1O[C@@H](n2cnc3c(N)ncnc32)[C@H](O)[C@@H]1OP(=O)(O)O)[C@@H](O)C(=O)NCCC(=O)NCCSC(=O)c1ccccc1
The data set is described as above. The following applies: malonyl-CoA held constant (standard 60 µM), 0.1 M potassium phosphate pH 7.0, 37°C. Format: biochemical, Malus domestica.
Text: as §2
This is another data set of the same source.

Substrate in data set [6]: CC(C)(COP(=O)(O)OP(=O)(O)OC[C@H]1O[C@@H](n2cnc3c(N)ncnc32)[C@H](O)[C@@H]1OP(=O)(O)O)[C@@H](O)C(=O)NCCC(=O)NCCSC(=O)c1ccccc1O
The data set is described as above. In kind it is biochemical, Malus domestica. Conditions: malonyl-CoA held constant (standard 60 µM), 0.1 M potassium phosphate pH 7.0, 37°C.
Text: as §2
This is another data set of the same source.

Substrate in data set [7]: CC(C)(COP(=O)(O)OP(=O)(O)OC[C@H]1O[C@@H](n2cnc3c(N)ncnc32)[C@H](O)[C@@H]1OP(=O)(O)O)[C@@H](O)C(=O)NCCC(=O)NCCSC(=O)/C=C/c1ccc(O)cc1
The description is as above. Format: biochemical, Malus domestica. The following applies: malonyl-CoA held constant (standard 100 µM), 0.1 M potassium phosphate pH 7.0, 37°C. The source says: (§3) steady-state kinetics, LC-MS product quantification on MdCHS2

Substrate in data set [8]: CC(C)(COP(=O)(O)OP(=O)(O)OC[C@H]1O[C@@H](n2cnc3c(N)ncnc32)[C@H](O)[C@@H]1OP(=O)(O)O)[C@@H](O)C(=O)NCCC(=O)NCCSC(=O)CC(=O)O
Described as above. In kind it is biochemical, Malus domestica. The following applies: coumaroyl-CoA held constant (standard 60 µM), 0.1 M potassium phosphate pH 7.0, 37°C.
Text: as §3

Substrate in data set [9]: CC(C)(COP(=O)(O)OP(=O)(O)OC[C@H]1O[C@@H](n2cnc3c(N)ncnc32)[C@H](O)[C@@H]1OP(=O)(O)O)[C@@H](O)C(=O)NCCC(=O)NCCSC(=O)CC(=O)O
The description is as above. Format: biochemical, Hypericum androsaemum. Conditions: starter substrate held constant (standard 20 µM), 0.1 M potassium phosphate pH 7.0, 37°C. The source says:
(§4) steady-state kinetics, LC-MS product quantification on HaBPS

Substrate in data set [10]: CC(C)(COP(=O)(O)OP(=O)(O)OC[C@H]1O[C@@H](n2cnc3c(N)ncnc32)[C@H](O)[C@@H]1OP(=O)(O)O)[C@@H](O)C(=O)NCCC(=O)NCCSC(=O)c1ccccc1
The data set is described as above. Format: biochemical, Hypericum androsaemum. The following applies: malonyl-CoA held constant (standard 80 µM), 0.1 M potassium phosphate pH 7.0, 37°C.
Text: as §4

A word on the Km: it is the substrate concentration at which the rate is half of its maximum. A word on the kcat: it is the maximal rate divided by the concentration of active sites. What is called kcat/Km is the second-order rate constant that governs catalysis at low substrate concentration.

For the molecule `CC(C)(COP(=O)(O)OP(=O)(O)OC[C@H]1O[C@@H](n2cnc3c(N)ncnc32)[C@H](O)[C@@H]1OP(=O)(O)O)[C@@H](O)C(=O)NCCC(=O)NCCSC(=O)c1ccccc1` [Benzoyl-CoA], the “X-ray crystal structure, 1.20 Å” value at MdBIS3 (MdBIS3.1) was “co-crystallization of MdBIS3 with benzoyl-CoA, resulting in intact benzoyl-CoA molecules with partial occupancies”.

B1: MdBIS1 (MdBIS1.1) (Malus domestica) (protein)
chain: MAPLVKNHGEHQHAKILAIGTANPPNVYYQKDYPDFLFRVTKNEHRTDLREKFDRICEKSRTRKRYLHLTEEILKANPSIYTYGAPSLDVRQDMLNPEVPKLGQQAALKAIKEWGQPISKITHLIFCTASCVDMPGADFQLVKLLGLNPSVTRTMIYEAGCYAGATVLRLAKDFAENNEGARVLVVCAEITTVFFHGLTDTHLDILVGQALFADGASAVIVGANPEPKIERPLFEIVACRQTIIPNSEHGVVANIREMGFTYYLSGEVPKFVGGNVVDFLTKTFEKVDGKNKDWNSLFFSVHPGGPAIVDQVEEQLGLKEGKLRATRHVLSEYGNMGAPSVHFILDDMRKKSIEEGKSTTGEGLEWGVVIGIGPGLTVETAVLRSESITC
notes: cDNA in pHIS8, E. coli BL21(DE3), N-terminal His8 tag cut with thrombin
Turning to B1, the Km in [1] came to 6.8 ± 1.7 µM. Further, in [2], the Km was 0.8 ± 0.2 µM, the kcat was 0.2833 ± 0.00167 s⁻¹ and the kcat/Km was 350000 M⁻¹ s⁻¹. Further, in data set [3], the Km turned out to be 1.6 ± 0.4 µM, the kcat was 0.2083 ± 0.00167 s⁻¹ and the kcat/Km came to 130000 M⁻¹ s⁻¹.

B2: MdBIS3 (MdBIS3.1) (Malus domestica) (protein)
chain: MAPLVKNEPQHAKILAIGTANPPNVYHQKDYPDFLFRVTKNEHRTDLREKFDRICEKSRTKKRYLHLTEEMLKANPNIYTYGAPSLDVRQDICNIEVPKLGQEAALKAIKEWGQPISRITHLIFCTASCVDMPGCDFQLIKLLGLDPSVTRTMIYEAGCYAGATVLRMAKDFAENNKGARVLVVCAEITTVFFHGLTDTHLDILVGQALFADGASAVIVGANPEPEIERPLFEIVACRQTILPNSEHGVVANIREMGFNYYLSGDVPKFVGGNVVDFMTKTFEKVDGKKKDWNSLFFSVHPGGPAIVDQVEEKLGLKEGKLRATRHVLSEYGNMGAPTVHFILDEMRNKSIEEGKTTTGEGLEWGVVIGIGPGLTVETAVLRSESIRC
notes: cDNA in pHIS8, E. coli BL21(DE3), N-terminal His8 tag cut with thrombin; homodimer
Take B2: the Km came to 4.1 ± 1.9 µM in data set [4], 0.5 ± 0.1 µM in data set [5] and 1.1 ± 0.4 µM in data set [6]. The kcat was found to be 0.135 s⁻¹ in data set [5] and 0.1 ± 0.00167 s⁻¹ in data set [6]. For the same molecule, the values for the kcat/Km in data set [5] and in data set [6] were 270000 M⁻¹ s⁻¹ and 90000 M⁻¹ s⁻¹, respectively.

B3: MdCHS2 (Malus domestica) (protein)
chain: MVTVEEVRKAQRAEGPATVLAIGTATPSNCVDQATYPDYYFRITNSEHKTELKEKFQRMCDKSMIKKRYMYLTEEILKENPTVCEYMAPSLDARQDMVVVEVPRLGKEAATKAIKEWGQPKSKITHLVFCTTSGVDMPGADYQLTKLLGLRPYVKRLMMYQQGCFAGGTVLRLAKDLAENNKGARVLVVCSEITAVTFRGPSDTHLDSLVGQALFGDGAAAVIIGADPLPEVEKPLFELVSAAQTILPDSDGAIDGHLREVGLTFHLLKDVPGLISKNIEKSLNEAFKPIGISDWNSLFWIAHPGGPAILDQVESKLALKPEKLEATRQVLSNYGNMSSACVLFILDEVRRKSTEKGLRTTGEGLEWGVLFGFGPGLTVETVVLHSVAA
notes: as for B2
Take B3: in data set [7], the Km was determined as 17.9 ± 6.1 µM, the kcat turned out to be 0.02 ± 0.00167 s⁻¹ and the catalytic efficiency (kcat/Km) was 1120 M⁻¹ s⁻¹. Moreover, the Km in data set [8] turned out to be 12.8 ± 2.7 µM.

B4: HaBPS (Hypericum androsaemum) (protein)
chain: MAPAMEYSTQNGQGEGKKRASVLAIGTTNPEHFILQEDYPDFYFRNTNSEHMTELKEKFKRICVKSHIRKRHFYLTEEILKENQGIATYGAGSLDARQRILETEVPKLGQEAALKAIAEWGQPISKITHVVFATTSGFMMPGADYVITRLLGLNRTVRRVMLYNQGCFAGGTALRVAKDLAENNEGARVLVVCAENTAMTFHAPNESHLDVIVGQAMFSDGAAALIIGACPDVASGERAVFNILSASQTIVPGSDGAITAHFYEMGMSYFLKEDVIPLFRDNIAAVMEEAFSPLGVSDWNSLFYSIHPGGRGIIDGVAGNLGIKDENLVATRHVLGEYGNMGSACVMFILDELRKSSKVNGKPTTGDGKEFGCLIGLGPGLTVEAVVLQSVPILQ
notes: codon-optimized synthetic gene in pHIS8, E. coli BL21(DE3), N-terminal His8 tag cut with thrombin; homodimer
For the molecule B4, in [9], the Km turned out to be 2.8 ± 0.7 µM. Also, in data set [10], the Km came to 1.3 ± 0.5 µM, the kcat turned out to be 0.0183 s⁻¹ and the kcat/Km worked out at 14000 M⁻¹ s⁻¹.
